Test results: the supplement of paper PMC7125110
± gives the standard error. Fewer inactive variants are shown than the library holds.

B1: glmS ribozyme (parent)
chain: AUAAAAGCGCCAGAACUACAGAAAUGUAGUUGACGAGGAGGAGGUUUAUCGAAUUUUCGGCGGAUGCCUCCAAA

Columns and labels:
Conditions in all cases: with glucosamine-6-phosphate
glucosamine-6-phosphate [1] = variants of: B1; assay: self-cleavage kobs at 40 uM GlcN6P; higher = faster cleavage; RNA array
How it was run: (§1)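 Glucosamine-6-phosphate, from 40 μM to 10 mM in HEPES/KCl/Mg(OAc)2 buffer, was flowed over sequenced MiSeq chips carrying barcoded ribozyme variants transcribed in situ by E. coli RNA polymerase. A hybridised Cy3 probe tracked the variants at 37 °C as tiles were imaged over ~14 h. kobs, kcat and KM were obtained by fitting normalised per-tile medians to exponential decays and then applying weighted Michaelis–Menten fits across concentrations.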

glucosamine-6-phosphate [2] = variants of: B1; assay: self-cleavage kobs at 160 uM GlcN6P; higher = faster cleavage; RNA array
How it was run: as §1

glucosamine-6-phosphate [3] = variants of: B1; assay: self-cleavage kobs at 640 uM GlcN6P; higher = faster cleavage; RNA array
How it was run: as §1

glucosamine-6-phosphate [4] = variants of: B1; assay: self-cleavage kobs at 10000 uM GlcN6P; higher = faster cleavage; RNA array
How it was run: as §1

glucosamine-6-phosphate [5] = variants of: B1; assay: self-cleavage kobs at 2500 uM GlcN6P; higher = faster cleavage; RNA array
How it was run: as §1

Row | Variant | self-cleavage kobs at 40 uM GlcN6P (glucosamine-6-phosphate [1]) [s⁻¹] | self-cleavage kobs at 160 uM GlcN6P (glucosamine-6-phosphate [2]) [s⁻¹] | self-cleavage kobs at 640 uM GlcN6P (glucosamine-6-phosphate [3]) [s⁻¹] | self-cleavage kobs at 10000 uM GlcN6P (glucosamine-6-phosphate [4]) [s⁻¹] | self-cleavage kobs at 2500 uM GlcN6P (glucosamine-6-phosphate [5]) [s⁻¹]
1 | G7C G59A | < 1e-05 | < 1e-05 | < 1e-05 | < 1e-05 | 
2 | A39U G60U | < 1e-05 | < 1e-05 | < 1e-05 | < 1e-05 | 
3 | A39G A42C U69G C70A | < 1e-05 |  |  |  | 
4 | A6G C61G | < 1e-05 | < 1e-05 | < 1e-05 | < 1e-05 | < 1e-05
5 | G44U C50U A53C | < 1e-05 |  | < 1e-05 |  | < 1e-05
6 | G37C U45C G59U C68G | < 1e-05 |  | < 1e-05 | < 1e-05 | 
7 | A39G U69A | 8.49e-05 ± 1.6e-05 | 9.95e-05 ± 2.2e-05 | 0.000395 ± 6.6e-05 | 0.000139 ± 2.2e-05 | 0.000452 ± 0.00012
8 | G40C G51U | < 1e-05 | < 1e-05 | < 1e-05 | < 1e-05 | < 1e-05
9 | A42C U65G C70G C71G | < 1e-05 |  |  |  | 
10 | G43A U49G | < 1e-05 | < 1e-05 | < 1e-05 |  | < 1e-05
11 | A36G G43A U54G | < 1e-05 |  | < 1e-05 | < 1e-05 | < 1e-05
12 | C8U U69G | 0.000157 ± 3.4e-05 |  | 0.00216 ± 0.00095 | 0.000167 ± 3.1e-05 | 
13 | G41C C70G | 0.0028 ± 0.00025 | 0.00588 ± 0.00089 | 0.023 ± 0.0035 |  | 0.0672 ± 0.025
14 | G44A C70G | < 1e-05 | < 1e-05 | < 1e-05 | < 1e-05 | < 1e-05
15 | C11U G63A | < 1e-05 | < 1e-05 | < 1e-05 | < 1e-05 | < 1e-05
16 | A48U G66C | < 1e-05 | < 1e-05 |  |  | 
17 | A33G C34U | < 1e-05 |  |  |  | < 1e-05
18 | U49C U57A | < 1e-05 |  |  |  | 
19 | C10G G32C A48U | < 1e-05 |  |  | < 1e-05 | 
20 | A6U A36C C50U A64G | < 1e-05 |  |  |  | 
21 | C16G G35A U56G G63C | < 1e-05 |  |  | < 1e-05 | 
22 | A33U C50G C61A | 0.000105 ± 2e-05 |  |  | 0.000139 ± 2.7e-05 | 
23 | G7A A36C U54G | < 1e-05 |  |  | < 1e-05 | 
24 | G9A G43C | < 1e-05 |  |  |  | 
25 | C11U A14G G40U A42C | < 1e-05 |  |  | < 1e-05 | 

Row | Variant | self-cleavage kobs at 40 uM GlcN6P (glucosamine-6-phosphate [1]) [s⁻¹] | self-cleavage kobs at 160 uM GlcN6P (glucosamine-6-phosphate [2]) [s⁻¹] | self-cleavage kobs at 640 uM GlcN6P (glucosamine-6-phosphate [3]) [s⁻¹] | self-cleavage kobs at 10000 uM GlcN6P (glucosamine-6-phosphate [4]) [s⁻¹] | self-cleavage kobs at 2500 uM GlcN6P (glucosamine-6-phosphate [5]) [s⁻¹]
26 | G13A G51C | < 1e-05 | < 1e-05 |  | < 1e-05 | 
27 | A14C U46A G59A C68G | < 1e-05 |  |  |  | 
28 | C10U A12G U46A U47G U49G | < 1e-05 |  |  |  | 
29 | G26U U31G G44U C50U | < 1e-05 |  |  | < 1e-05 | < 1e-05
30 | C8U G37C | < 1e-05 | < 1e-05 | < 1e-05 | < 1e-05 | < 1e-05
31 | G35A G51C | < 1e-05 |  | < 1e-05 |  | < 1e-05
32 | G35C U65A | < 1e-05 |  | < 1e-05 | < 1e-05 | 
33 | A36C G41A G43A | < 1e-05 |  |  |  | 
34 | G32C A42C C68A | < 1e-05 |  | < 1e-05 |  | 
35 | G29U C50G | 5.51e-05 ± 1.5e-05 | 0.000992 ± 0.0003 | 5.49e-05 ± 1.4e-05 |  | 
36 | G35A A52G | < 1e-05 |  |  | < 1e-05 | < 1e-05
37 | C34U A53G C68G | 7.28e-05 ± 3.2e-05 |  |  | 0.000655 ± 0.00017 | 
38 | C8U G35U | < 1e-05 | < 1e-05 | < 1e-05 | < 1e-05 | < 1e-05
39 | U30C U31A G35U G37C | < 1e-05 |  |  |  | 
40 | C8G A39U C58U | < 1e-05 | < 1e-05 | < 1e-05 | < 1e-05 | 
41 | A33C G44A C71A | < 1e-05 |  |  | < 1e-05 | 
42 | A33U G43U C50G G51U | < 1e-05 |  |  |  | 
43 | G35U G41U U45C | < 1e-05 |  |  | < 1e-05 | 
44 | C8G U45A | < 1e-05 | < 1e-05 | < 1e-05 | < 1e-05 | 
45 | U30G C61G | < 1e-05 |  |  | < 1e-05 | 
46 | A52C U55C | < 1e-05 | < 1e-05 |  |  | 
47 | C11G G59A C68A | < 1e-05 |  |  | < 1e-05 | 
48 | A14G U56C G59U | < 1e-05 |  |  | 2.7e-05 ± 1.3e-05 | 
49 | G44A U56C | < 1e-05 | < 1e-05 |  | < 1e-05 | 
